Reference: patent publication US20230235058A1 (OXFORD UNIVERSITY INNOVATION, published 2023)
Substitutions are numbered along the chain they refer to. Values belong to the binder of their own block, whether it stands above or below them.

Tests used:
human FcγR1A [1] = biological target: T1, human FcγR1A (human, UniProt P12314 16-288, biotinylated); experiment: SPR 37C, kinetic; hIgG1 K322A Fc variant
T1 construct: bought; also called CD64A
Procedure: For the high affinity FcR interactions (FcγR1A, and also FcRn assessed at pH6.0) the binding was assessed in a kinetic analysis with antibody as analyte. […] Reference flow cell 1 was left empty in all channels. Purified antibody was then injected at a single concentration and on/off rates calculated by curve fitting on BiaEvaluation software.

human FcγR2A 131H [2] = biological target: T2, human FcγR2A 131H (human, UniProt P12318 34-217); experiment: SPR 37C, steady state; hIgG1 K322A Fc variant;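 as to result: fc variants captured on chip-bound human BTLA ectodomain, recombinant FcγR ectodomains injected as analyte at varied concentrations, double-referenced equilibrium binding fitted to Langmuir model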
T2 construct: extracellular domain
T2 sequence (looked up): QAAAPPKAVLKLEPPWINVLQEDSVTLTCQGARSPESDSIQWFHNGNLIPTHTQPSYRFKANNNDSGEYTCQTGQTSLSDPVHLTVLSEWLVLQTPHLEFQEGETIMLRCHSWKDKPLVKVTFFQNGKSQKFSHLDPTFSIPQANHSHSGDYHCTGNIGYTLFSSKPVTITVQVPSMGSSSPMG
Procedure: (§1) For the low affinity FcγRs (FcγR2A, FcγR2B, FcγR3A and FcγR3B) the interactions were assessed by surface plasmon resonance with the recombinantly expressed FcRs (extracellular domains only) as analyte. Briefly, recombinant human BTLA extracellular domain (BTLA^K31-R151) was covalently immobilised to both flow cells of all channels of a CMS Series S sensor chip using the GE Healthcare Amine coupling kit. The 2.8.6 Fc variant to be assessed was then captured (approx. 500-1000 response units) in flow cell 2 of each channel. Steady state affinity analysis was then performed by injecting varying concentrations of FcR in multiple cycles and measuring equilibrium binding. Double referencing was used (subtracting the signal in the reference Fc1 and also subtracting the signal from a blank zero concentration injection). KDs were calculated from the Langmuir curves (plotting equilibrium binding against analyte concentration to determine the concentration required for half maximal binding).

human FcγR2B [3] = biological target: T3, human FcγR2B (human, UniProt P31994 43-217); experiment: SPR 37C, steady state; hIgG1 K322A Fc variant;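 as to result: fc variants captured on chip-bound human BTLA ectodomain, recombinant FcγR ectodomains injected as analyte at varied concentrations, double-referenced equilibrium binding fitted to Langmuir model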
T3 construct: extracellular domain; also called hFcγR2B; CD32B
T3 sequence (looked up): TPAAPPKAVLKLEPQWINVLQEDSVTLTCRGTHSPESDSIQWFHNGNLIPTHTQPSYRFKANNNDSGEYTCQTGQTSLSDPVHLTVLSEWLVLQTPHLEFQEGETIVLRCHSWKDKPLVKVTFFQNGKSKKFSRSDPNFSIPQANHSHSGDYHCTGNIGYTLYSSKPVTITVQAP
Procedure: as §1

human FcγR3A 158F [4] = biological target: T4, human FcγR3A 158F (human, UniProt P08637 17-208); experiment: SPR 37C, steady state; hIgG1 K322A Fc variant;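 as to result: fc variants captured on chip-bound human BTLA ectodomain, recombinant FcγR ectodomains injected as analyte at varied concentrations, double-referenced equilibrium binding fitted to Langmuir model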
T4 construct: extracellular domain
T4 sequence (P08637 17-208): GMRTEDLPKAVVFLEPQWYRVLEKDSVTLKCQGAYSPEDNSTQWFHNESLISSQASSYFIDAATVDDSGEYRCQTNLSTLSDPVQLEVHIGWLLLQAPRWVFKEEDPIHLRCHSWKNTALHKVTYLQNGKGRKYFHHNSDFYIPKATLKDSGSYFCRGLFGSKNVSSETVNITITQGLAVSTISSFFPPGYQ
Procedure: as §1

human FcγR3A 158V [5] = biological target: T5, human FcγR3A 158V (human, UniProt P08637 17-208); experiment: SPR 37C, steady state; hIgG1 K322A Fc variant;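 as to result: fc variants captured on chip-bound human BTLA ectodomain, recombinant FcγR ectodomains injected as analyte at varied concentrations, double-referenced equilibrium binding fitted to Langmuir model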
T5 construct: extracellular domain
T5 sequence (P08637 17-208 F176V): as the sequence (P08637 17-208) above, with F160V counted along it
Procedure: as §1

human FcγR3B [6] = biological target: T6, human FcγR3B (human, UniProt O75015 17-200, limits assumed); experiment: SPR 37C, steady state; hIgG1 K322A Fc variant
T6 construct: extracellular domain; also called CD16B
T6 sequence (O75015 17-200 limits assumed): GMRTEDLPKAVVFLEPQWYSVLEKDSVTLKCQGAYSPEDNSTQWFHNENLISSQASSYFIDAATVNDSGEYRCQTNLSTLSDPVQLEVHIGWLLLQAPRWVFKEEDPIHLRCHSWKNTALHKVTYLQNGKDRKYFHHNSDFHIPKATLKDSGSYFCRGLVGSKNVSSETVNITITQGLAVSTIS
Procedure: as §1

human FcRn = biological target: T7, human FcRn (human, UniProt P55899 24-297; P61769 21-119, limits assumed, biotinylated); experiment: SPR, pH6.0
T7 construct: bought; also called FcRn pH6

human FcγR3A 158F [7] = biological target: T4, human FcγR3A 158F; experiment: SPR 37C, steady state
Procedure: as §1

human FcγR3A 158V [8] = biological target: T5, human FcγR3A 158V; experiment: SPR 37C, steady state
Procedure: as §1

human FcγR3B [9] = biological target: T6, human FcγR3B; experiment: SPR 37C, steady state
Procedure: as §1

human FcγR1A [10] = biological target: T1, human FcγR1A; experiment: SPR 37C, kinetic; hIgG1 N297A Fc variant
Procedure: For the high affinity FcR interactions (FcγR1A, and also FcRn assessed at pH6.0) the binding was assessed in a kinetic analysis with antibody as analyte. […] Reference flow cell 1 was left empty in all channels. Purified antibody was then injected at a single concentration and on/off rates calculated by curve fitting on BiaEvaluation software. […] IgG Fc has two binding sites for FcRn so this assessment performed with FcRn immobilised at high density provides an avidity estimate for the interaction rather than a true KD.

human FcγR2A 131R = biological target: T8, human FcγR2A 131R (human, UniProt P12318 34-217); experiment: SPR 37C, steady state; hIgG1 N297A Fc variant
T8 construct: extracellular domain
T8 sequence (looked up): T2 sequence (looked up) with H134R
Procedure: as §1

human FcγR2A 131H [11] = biological target: T2, human FcγR2A 131H; experiment: SPR 37C, steady state; hIgG1 N297A Fc variant
Procedure: as §1

human FcγR2B [12] = biological target: T3, human FcγR2B; experiment: SPR 37C, steady state; hIgG1 N297A Fc variant
Procedure: as §1

T1 sequence (P12314 16-288): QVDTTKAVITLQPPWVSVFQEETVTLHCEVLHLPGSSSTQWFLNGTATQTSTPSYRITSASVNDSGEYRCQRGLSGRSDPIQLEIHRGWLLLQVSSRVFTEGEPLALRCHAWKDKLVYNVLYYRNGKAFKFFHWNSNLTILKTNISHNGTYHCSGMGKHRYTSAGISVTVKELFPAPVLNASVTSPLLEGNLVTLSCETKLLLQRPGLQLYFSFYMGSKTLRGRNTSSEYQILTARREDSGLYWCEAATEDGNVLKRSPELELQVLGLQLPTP

Kd (human FcγR1A [1]): 0.0052 µM
Kd (human FcγR2A 131H [2]): 4.6 µM
Kd (human FcγR2B [3]): 11 µM
Kd (human FcγR3A 158F [4]): 5.75 µM
Kd (human FcγR3A 158V [5]): 2.18 µM
Kd (human FcγR3B [6]): 11.9 µM
B1: humanised 2.8.6 hIgG1 K322A (antibody)
heavy: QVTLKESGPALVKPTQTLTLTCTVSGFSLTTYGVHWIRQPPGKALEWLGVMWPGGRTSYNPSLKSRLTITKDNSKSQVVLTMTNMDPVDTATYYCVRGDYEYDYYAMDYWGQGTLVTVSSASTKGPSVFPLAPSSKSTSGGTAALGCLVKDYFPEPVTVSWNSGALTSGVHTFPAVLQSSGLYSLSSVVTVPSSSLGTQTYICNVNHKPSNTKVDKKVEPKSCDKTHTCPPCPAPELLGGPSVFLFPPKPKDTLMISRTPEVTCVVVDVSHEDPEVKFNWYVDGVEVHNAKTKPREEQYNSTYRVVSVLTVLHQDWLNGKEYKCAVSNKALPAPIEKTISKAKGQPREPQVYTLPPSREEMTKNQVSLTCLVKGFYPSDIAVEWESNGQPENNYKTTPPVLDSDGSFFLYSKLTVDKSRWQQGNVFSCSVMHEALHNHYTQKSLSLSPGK
light: EIVLTQSPATLSLSPGERATLSCRASSSVSYMHWYQQKPGQAPRPLIYATSNRATGIPARFSGSGSGTDYTLTISSLEPEDFAVYYCHQWSSNPYTFGQGTKLEIKRTVAAPSVFIFPPSDEQLKSGTASVVCLLNNFYPREAKVQWKVDNALQSGNSQESVTEQDSKDSTYSLSSTLTLSKADYEKHKVYACEVTHQGLSSPVTKSFNRGEC
notes: Fc variant with the variable domains of humanised 2.8.6; copies: 2 + 2

avidity (FcRn pH6) (human FcRn): 9.41 nM
binding result (human FcγR3A 158F [7]): no binding
binding result (human FcγR3A 158V [8]): no binding
binding result (human FcγR3B [9]): no binding
Kd (human FcγR1A [10]): 8.7 µM
Kd (human FcγR2A 131R): 447 µM
Kd (human FcγR2A 131H [11]): 2150 µM
Kd (human FcγR2B [12]): 1080 µM
B2: humanised 2.8.6 hIgG1 N297A (antibody)
heavy: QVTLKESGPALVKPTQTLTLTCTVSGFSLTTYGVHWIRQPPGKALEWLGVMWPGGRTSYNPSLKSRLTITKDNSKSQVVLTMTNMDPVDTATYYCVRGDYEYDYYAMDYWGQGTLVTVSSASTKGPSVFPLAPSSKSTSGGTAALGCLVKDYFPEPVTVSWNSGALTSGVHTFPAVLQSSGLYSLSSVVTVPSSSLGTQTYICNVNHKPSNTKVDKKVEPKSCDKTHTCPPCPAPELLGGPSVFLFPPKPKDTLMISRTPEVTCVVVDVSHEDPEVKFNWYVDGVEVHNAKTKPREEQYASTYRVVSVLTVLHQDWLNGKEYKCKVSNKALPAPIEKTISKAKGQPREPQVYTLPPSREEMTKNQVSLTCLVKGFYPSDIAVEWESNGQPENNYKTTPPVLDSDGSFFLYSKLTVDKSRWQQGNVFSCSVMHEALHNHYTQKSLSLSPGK
light: B1 light
notes: as for B1
